The conditions of the data set: Bacillus amyloliquefaciens; pH 8; Thermal; DSC; Tris-HCl 5.0 mM; KCl 50 mM; reversible: yes; whole UniProt chain shown.

B1: Subtilisin BPN' wild type, P00782 (protein)
chain: MRGKKVWISLLFALALIFTMAFGSTSSAQAAGKSNGEKKYIVGFKQTMSTMSAAKKKDVISEKGGKVQKQFKYVDAASATLNEKAVKELKKDPSVAYVEEDHVAHAYAQSVPYGVSQIKAPALHSQGYTGSNVKVAVIDSGIDSSHPDLKVAGGASMVPSETNPFQDNNSHGTHVAGTVAALNNSIGVLGVAPSASLYAVKVLGADGSGQYSWIINGIEWAIANNMDVINMSLGGPSGSAALKAAVDKAVASGVVVVAAAGNEGTSGSSSTVGYPGKYPSVIAVGAVDSSNQRASFSSVGPELDVMAPGVSIQSTLPGNKYGAYNGTSMASPHVAGAAALILSKHPNWTNTQVRSSLENTTTKLGDSFYYGKGLINVQAAAQ
With B1, the Tm was found to be 58.5 °C, the “heat capacity change of unfolding” value is 4.8 kcal/mol/K, the “unfolding enthalpy (calorimetric)” value is 88.3 kcal/mol and the “unfolding enthalpy (van 't Hoff)” value came out at 97 kcal/mol.
